The results in this text go back to PMC4791424, “The BAH domain of BAHD1 is a histone H3K27me3 reader” (Protein & Cell, 2016).

Assay [1] deals with T1, BAH domain of human BAHD1 (BAH589-780), wild type (Homo sapiens, UniProt Q8TBE0).
T1 construct: The BAH domain encompassing residues 589-780 of human BAHD1 was cloned in to a; 10xHis-SUMO (N, cleaved yes); made in house; host or cells: E. coli BL21 (DE3)
T1 sequence (Q8TBE0 589-780): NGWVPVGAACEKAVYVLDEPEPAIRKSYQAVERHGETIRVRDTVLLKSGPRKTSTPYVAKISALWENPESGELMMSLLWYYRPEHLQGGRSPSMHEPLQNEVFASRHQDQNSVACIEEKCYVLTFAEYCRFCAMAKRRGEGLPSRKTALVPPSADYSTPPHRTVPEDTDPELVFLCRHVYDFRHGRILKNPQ
Put plainly: Isothermal titration calorimetry (ITC), wild type BAH domain. In kind it is binding. The note with it: wild type BAHBAHD1. In general terms: ITC needs no label: the signal is the heat of the interaction.

Assay [2] has as its target BAH_(BAHD1) domain (aa 589–780), as used in ITC and HXMS (human) (UniProt Q8TBE0). Kind of assay: ITC; BAH_(BAHD1) domain titrated with histone peptides; optimized buffer condition (Tm 39°C in thermal shift assays).
Assay [3] has as its target BAHD1 BAH domain, 589-780 (UniProt Q8TBE0). Put plainly: isothermal titration calorimetry. The note with it: reference: H3K27me3 peptide; sites S28.
The target in assay [4] is BAH domain of human BAHD1 (residues 589-780), wild type (human) (UniProt Q8TBE0). Put plainly: ITC; BAH domain (wild type or mutant) titrated with histone peptide; 15 °C, MicroCal iTC200; 20 mM Tris pH 8.5, 500 mM (NH)2SO4, 5% glycerol; "One Set of Binding Sites" fitting model.
In assay [5] the target is T2, BAH domain of human BAHD1 (residues 589-780), wild type (human, UniProt Q8TBE0 589-780).
T2 construct: BAHD1 (bromo adjacent homology domain containing protein 1), human, BAH domain, residues 589-780 of the full-length protein (1-780); also called BAH589-780; BAH_(BAHD1); source: E. coli BL21 (DE3), purified (HisTrap, tag cleaved by ULP1, Superdex G75); not shown: 10xHis-SUMO, N-terminal, cleaved
T2 sequence (looked up): T1 sequence (Q8TBE0 589-780)
Described as above. The note with it: both partners purified.

No end group written: not given here. me3 = trimethyl on lysine side chain

For “ARTKQTARKSTGGK(ac)A-NH2 [H31-15K14ac, histone H3 peptide residues 1-15 with acetylated K14]”, in assay [1], the “binding observed by ITC (in words)” value is given as “no bindings were observed”.
Turning to H3K27me1 peptide, the Kd – broadly, a measure of binding affinity in units of concentration – in assay [2] was found to be 2000 µM.
For “H3K27me3 peptide, H3 frame 19–34 (from UniProt P68431 20-35)”, the fold reduction of binding against H3 (15-42)K27me3 in assay [2] was 3.9 fold.
As to “H3K27me3 peptide, H3 frame 21–32 (from UniProt P68431 22-33)”, the fold reduction of binding against H3 (15-42)K27me3 in assay [2] was determined as 7.8 fold.
In the case of “H3_(1-15)K9me3 peptide (from UniProt P68431 2-16)”, in assay [2], the dissociation constant Kd is 2600 µM.
For the molecule “NH2-ARTKQTAR(me2s)KS-COOH [H31-10R8me2s, histone H3 peptide residues 1-10 with R8me2s]”, the “binding observed by ITC (in words)” value in assay [1] is given as “no bindings were observed”.
On to histone H3 15-42 H3K27me3S28ph peptide, for which the KD result in assay [3] was “weaker; reference 15.9”.
With histone H3 (15-42) K27me1 peptide, in assay [4], the stoichiometry N (in general, a count of units in the complex or per binding partner) worked out at 1.
The same measure, in the same setting: then histone H3 (15-42) K27me2 peptide, with 1.1.
Consider histone H3 (15-42) K27me3 S28ph peptide, for which the stoichiometry N in assay [4] was 1.
The same measure, in the same setting: then histone H3 (15-42) K27me3 peptide, with 1.

B1: histone H3 (21-32) K27me3 peptide (peptide)
peptide: ATKAARK(me3)SAPAT
notes: histone H3, residues 21-32 (A31: as in H3.1/H3.2); source: synthetic peptide (SciLight Biotechnology)
As for B1, in assay [5], the affinity, expressed as Kd, was 124 µM and the “stoichiometry N” value was found to be 1.1.

B2: histone H3 (19-34) K27me3 peptide (peptide)
peptide: QLATKAARKSAPATGG
modifications: trimethyl-lysine at K27 (K(me3))
notes: histone H3, residues 19-34 (A31: as in H3.1/H3.2); source: synthetic peptide (SciLight Biotechnology)
In the case of B2, the Kd in assay [5] was 61.3 µM.
